Data taken from US20130252987A1, “METHOD OF REGULATING PLASMA LIPOPROTEINS” (MCMASTER UNIVERSITY, priority 2010, published 2013).

How the values were obtained:
[1] = system: HepG2 cells; assay: real-time quantitative PCR of mRNA expression; format: cell-based, human
Description: Total RNA was isolated from cell lysates (RNeasy Mini Kit, Qiagen, Germantown, Md.) and used as a template for cDNA synthesis (QuantiTech Reverse Transcription Kit, Qiagen, Germantown, Md.). Quantitative real-time PCR was performed using an Applied Biosystems 7300 Real Time PCR system (Carlsbad, Calif.) according to the manufacturer's instructions and with the SYBR green master kit (Qiagen, Germantown, Md.). Primers for the real-time PCR internal control gene cyclophilin A (sense, 5′-[…]-3′ (SEQ ID NO:3); antisense, 5′-[…]-3′ (SEQ ID NO:4)) were synthesized (IDT, Coralville, Iowa). Primers for succinate degydrogenase (SDH) (another real-time PCR internal control gene), apoB, microsomal triglyceride transfer protein (MTP), Srebp1, Srebp2, acetyl-coA carboxylase (ACC), HMG-coA reductase, HMG-coA synthase, squalene synthase (SS), the LDL receptor, PCSK9, fatty acid synthase (FAS), […] (SCD), DGAT1 and DGAT2 were purchased (proprietary sequences not available) (Qiagen, Germantown, Md.). The values reported for each mRNA were corrected to the cyclophilin A and SDH mRNA values.
Total RNA was isolated from cell lysates (RNeasy Mini Kit, Qiagen, MD) and used as a template for cDNA synthesis (QuantiTech Reverse Transcription Kit, Qiagen, MD). Quantitative real-time PCR was performed using an Applied Biosystems 7300 Real-Time PCR system (Carlsbad, Calif.) according to the manufacturer's instructions and with the SYBR green kit (Qiagen, MD). Primers for the real-time PCR internal control gene cyclophilin A, as identified in Example 1, were synthesized (IDT, IA). Primers for succinate dehydrogenase (SDH) (another real-time PCR internal control gene), SREBP2, HMG-CoA reductase, the LDL receptor and PCSK9 were purchased (proprietary sequences not available) (Qiagen, MD). The values reported for each mRNA were corrected to the cyclophilin A and SDH mRNA values.

[2] = system: HepG2 cells; assay: FPLC lipoprotein profile of HepG2 cell media; format: cell-based, human; details: 50 ng/mL, 24 hour
Description: (§1) Lipids from HepG2 cell extracts were quantified by gas chromatography (GC) as described in Sahoo et al. (J. Lipid Res. 45:1122-1131). Briefly, cell extracts were incubated with phospholipase C (Sigma, ON) to remove polar head groups, then extracted in the presence of internal standard by the method of Folch et al. (J Biol Chem 226:497-509). Extracted lipids were passed through a sodium sulfate column to remove aqueous contaminants, and derivatized with Sylon BFT (Supelco, ON) to cap reactive hydroxyl and carboxyl groups. Derivatized lipids were dissolved in hexane and injected onto a Zebron ZB-5 column (Phenomenex, Torrance, Calif.) in an Agilent 6890 GC instrument. Lipoprotein Profiles. HepG2 media from 6-10 cm plates was collected and concentrated using an Amicon Centriprep concentrator 50 K and lipoprotein classes separated by fast protein liquid chromatography (FPLC) on a Superose 6 10/30 gel filtration column (Amersham, UK) followed by inline post-column reaction with either Infinity Triglyceride or Infinity Cholesterol reagent (Thermo Scientific, West Palm Beach, Fla.) and measurement of absorbance @ 500 nm.
The characteristics of the apoB-containing lipoprotein particles produced as a result of treatment of human hepatocytes with human resistin was determined. […]

[3] = system: HepG2 cells; assay: gas chromatography of hepatocyte lipids; format: cell-based, human; details: 50 ng/mL, 24 hours
Description: as §1
To quantify the hepatocyte lipid changes induced by human resistin, gas chromatography (GC) analyses of lipids extracted from harvested hepatocytes either untreated or treated with human resistin (50 ng/mL) for 24 hours was performed.

[4] = system: HepG2 cells; assay: insulin signaling pathway protein expression, Western blot; format: cell-based, human; details: 50 ng/mL, 24 hours
From the text: Horseradish peroxidase-conjugated antibodies (BioRad, Hercules, Calif.) were used as secondary antibodies.
Another important regulator of hepatocyte apoB/VLDL assembly and stability is the intracellular insulin signaling pathway.

[5] = system: HepG2 cells; assay: immunoblotting for LDL receptor and PCSK9 in HepG2 cells; details: 24 hours
Description: Cells were propagated in 10% FBS-containing DMEM supplemented with 1% penicillin-streptomycin and 0.06% L-glutamine (584 mg/L) at 37° C., 5% CO2. During treatment experiments with human recombinant resistin (Calbiochem, UK) and/or lovastatin (Sigma, Mo.), the media was changed to 1% FBS-containing DMEM. All of the experiments to follow were performed at least three times and representative results are shown. Cells were stimulated with resistin at various doses (0, 10, 25, 50, and 100 ng/mL) for 24 hours or with a single dose at 50 ng/mL resistin. In other experiments, the microsomal triglyceride transfer protein (MTP) inhibitor, CP-346086, was administered at 1.3 nM, either alone or together with resistin (50 ng/mL) for 24 hours. Lovastatin was administered at 1 to 5 μM for 24 hours to stimulate the cells, either alone or in combination with resistin (50 ng/mL). Unless otherwise indicated, all experiments were performed in triplicate in three independent experiments.
Cell lysates collected with RIPA buffer (50 mM Tris, 150 mM sodium chloride, 1% NP-40, 12 mM sodium deoxycholate, 3.5 mM SDS, pH 7.4) and protease inhibitor cocktail (Roche Diagnostics, QC) were analyzed for human LDL receptor and PCSK9 as previously described (Rashid et al. Proc Nall Acad Sci U S A 2005; 102:5374-9). Equivalent amounts of total protein, determined by Bradford reaction was subjected to sodium dodecyl sulfate polyacrylamide gel electrophoresis (SDS-PAGE), transferred onto nitrocellulose membranes (BioRad, CA) and immunoblotted using antibodies against the LDL receptor (Fitzgerald International, CA) and PCSK9 (Cayman Chemicals, MI). Horseradish peroxidase-conjugated antibodies (BioRad, CA) were used as secondary antibodies. Immunoreactive bands were visualized with a chemiluminescence kit (PerkinElmer Life Sciences, MA). The blots were exposed to KODAK Biomax films, and the signal was quantified by densitometry using Quantity One version 4.6.7. software (Bio Rad, CA).
All of the experiments were performed at least three times and representative results are shown. Dose-response experiments were performed in HepG2 cells with 0, 10, 25, 50, 75 and 100 ng/mL of human resistin for 24 hours. Western blots were then performed on cell lysates to detect the cellular expression of LDL receptor protein.

B1: human resistin: recombinant lyophilized purified human resistin (Calbiochem); cysteine-rich cytokine, single 12 kDa band (protein)
chain: KTLCSMEEAINERIQEVAGSLIFRAISSIGLECQSVTSRGDLATCPRGFAVTGCTCGSACGSWDVRAETTCHCQCAGMDWTGARCCRVQP
[1]; 50 ng/mL, 24 hours
  apoB mRNA expression: significant increase
  expression of DGAT1: increased to smaller but significant extents
  expression of SCD: increased to smaller but significant extents
  expression of the LDL RECEPTOR gene: increased
  expression of the PCSK9 gene: increased
  increase in the expression of ACC: 3 fold
  increase in the expression of HMG-CoA REDUCTASE: 2 fold
  increase in the expression of HMG-CoA SYNTHASE: 2 fold
  increase in the expression of SQUALENE SYNTHASE: 2 fold
  mRNA expression of SREBP1: significantly increased
  mRNA expression of SREBP2: significantly increased
[1]; 100 ng/mL dose, after dose-response increase from 0 to 50 ng/mL
  apoB mRNA expression: decreased
[2]
  increase in secreted VLDL triglycerides and cholesterol relative to control untreated cells: 8-9 fold
  lipid contents of the secreted LDL or HDL fractions: virtually no change
[3]
  increase in cholesteryl ester content: 18%
  increase in free cholesterol content: 3%
  increase in triglyceride content: 24%
[4]
  decrease in expression of IRS-2, ERK, phosphorylated ERK, Akt and serine and threonine phosphorylated Akt: 20-30%
[5]; 25 ng/mL resistin
  reduction of LDL receptor protein expression: 30%
[5]; 50 ng/mL resistin
  decrease in cellular LDL receptor protein expression: 40%
[5]; 75 ng/mL resistin
  decrease in cellular LDL receptor protein expression: 40%
[5]; resistin 50 ng/mL, with lovastatin 5 μM
  increase in cellular PCSK9 protein: 50%
